The results in this text go back to paper PMC11093223 (2024).

Holding throughout (assay): ITC
Assay [1] has as its target T1, SLAMF7 (Homo sapiens (Human), UniProt Q9NQ25).
T1 chain: EDPANTVYSTVE

Assay [2] has as its target T2, FAM174C (Homo sapiens (Human), UniProt Q9BVV8).
T2 chain: DSDEETVFES

Assay [3] deals with T3, CIMPR (Homo sapiens (Human), UniProt P11717).
T3 chain: EEETDENETEWLM

The target in assay [4] is T4, KIAA0319 (Homo sapiens (Human), UniProt Q5VV43).
T4 chain: ESEFDSDQDTIF

Assay [5] deals with T5, NPDC1 (Homo sapiens (Human), UniProt Q9NQX5).
T5 chain: DEENEDGDFTVYEC

For assay [6], the target named is T6, CPD (Homo sapiens (Human), UniProt O75976).
T6 chain: EEETLYSSKH

A value given as a limit tells only on which side of the number the result lay.

B1: TBC1D23 (protein)
chain: DRKEVVNIQTWINKPDIKHHFPCKEVKESGHMFPSHLLVTATHMYCLREILSRKGLAYIQSRQALNSVVKITSKKKHPELITFKYGNSSASGIEILAIERYLIPNAGDATRAIKQQIMKVLDALES
The Kd is a measure of binding affinity in units of concentration. Higher therefore signals weaker binding. On to B1, for which the Kd is over 100 µM in assay [1]; 15.7 µM in assay [2]; over 100 µM in assay [3]; 35.2 µM in assay [4]; 2.9 µM in assay [5]; 10.6 µM in assay [6].
